No end group written: not given here.

The nature of one data set: Hydrogel formation by dissolving peptides in NaOH solution. It counts as physicochemical. As to conditions: 0.023M peptide in NaOH solutions. On the procedure:
In general the matrix can be formed in the following way: dissolving the peptides at high pH above about 8) using either buffer (Tris) or NaOH. With the addition of the peptide the pH of the mixture drops and hydrogel may form. The peptide that is dissolved in alkaline solution can be titrated with HCl to a pH ˜7 to form yield a gel. The same can be done with HA or other mineral particles incorporated in the first step […]. Upon gelation the particles get trapped in the gel.
Four peptides were tested for their tendency to form hydrogels as function of pH and Ca^+2 ion concentrations. The peptides are 13 amino acids long having the sequence P-Y-(Z-Y)n-P, wherein n=5 and Y and Z are alternating hydrophilic (Y) and hydrophobic (Z) amino acids:
The experiment goal was to find appropriate conditions for hydrogel formation at physiological pH values (˜7.2) assuming that the type of amino acids in the dyads will determine the propensity of the system to form hydrogles thus the pH and the Ca^+2 ionic concentration of the system.
In an alkaline solution the acidic amino acid side chains tend to be negatively charged. Under these conditions charge-charge repulsive forces keep the peptides dissolved in solution. Upon lowering the pH the peptides which become uncharged undergo self-assembling through inter-strand hydrogen bonding, to form fibrous structure (FIG. 3) that stabilizes highly hydrated-gel, hydrogel. […] All the peptides lowered the pH of the solution to about 6-8 (Table 1).
In the next set of experiments the hypothesis that the more hydrophobic side chains would stabilize the beta-sheet fibril thus hydrogel formation, at higher pH values, was tested. Table 2 summarizes the effect of the hydrophobic side chain on the pH at which hydrogel is obtained. PLE-13 and PFE-13 were dissolved in different NaOH solutions to the same molar concentration (0.023M). […]
Consider PDLDLDLDLDLDP [PLD-13, PD(LD)5P], for which the “pH at which hydrogel is stabilized / formed” value is listed as “forms hydrogel at lower pH compared to that of PFD-13”.

For the substance PEFEFEFEFEFEP [PFE-13, PE(FE)5P], the “pH at which hydrogel is stabilized / formed” value is greater than 7.

Take PELELELELELEP [PLE-13, PE(LE)5P]: the “pH at which hydrogel is stabilized / formed” value is given as roughly 6.5.

PDFDFDFDFDFDP [PFD-13, PD(FD)5P]: the “pH at which hydrogel is stabilized / formed” value was roughly 7.

The data set is the same for the next values; noted with them: 4% weight peptide in 100 μl NaOH solution, NaOH conc. 0.03.
For “Pro-Asp-Phe-Asp (PDFD; printed: Pro-Asp-Phe-Asp)”, the “Resultant pH” value is roughly 3.

With (Phe-Asp)6 (FDFDFDFDFDFD), the “Resultant pH” value was roughly 6.

Regarding “Ac-Pro-Asp-(Phe-Asp)5-Pro-NH2 (Ac-PDFDFDFDFDFDP-NH2)”, the “Resultant pH” value is listed as roughly 6.

For Pro-Asp-(Phe-Asp)6 (PDFDFDFDFDFDFD), the “Resultant pH” value was roughly 6.

Staying with this data set, now noted: 4% weight peptide in 100 μl NaOH solution, NaOH conc. 0.05.
Regarding “Pro-Asp-Phe-Asp (PDFD; printed: Pro-Asp-Phe-Asp)”, the “Resultant pH” value is recorded as roughly 4 and the “Self supporting gel formation assigned+” value is on record as “liquid”.

For the substance (Phe-Asp)6 (FDFDFDFDFDFD), the “Resultant pH” value is roughly 7.

With “Ac-Pro-Asp-(Phe-Asp)5-Pro-NH2 (Ac-PDFDFDFDFDFDP-NH2)”, the “Resultant pH” value was greater than 7.5 and the “Self supporting gel formation assigned+” value is reported as “Viscous liquid”.

As for Pro-Asp-(Phe-Asp)6 (PDFDFDFDFDFDFD), the “Resultant pH” value is roughly 7 and the “Self supporting gel formation assigned+” value is reported as “+after several hrs”.

Experiment in another data set: as above
It counts as physicochemical. Conditions: 4% weight peptide in 100 μl NaOH solution, NaOH conc. 0.03.
As to “Pro-Asp-Phe-Asp (PDFD; printed: Pro-Asp-Phe-Asp)”, the “Self supporting gel formation assigned+” value is reported as “liquid”.

Values taken from US9670249B2, “Amphiphilic peptides and hydrogel matrices thereof for bone repair” (Ben-Gurion University of the Negev Research and Development …, priority 2006, dated 2017).
